Experimental data: paper PMC10827139
Where two headings read alike, the source gives them in different places.

Tests used:
Experiment in all cases: crystal structure
[1] = molecular target: His-ICP0 (HSV-1 strain KOS infected cell protein 0, residues A636-Q776) (herpes simplex virus 1 (HSV-1), strain KOS)
[2] = molecular target: His-ICP0 (HSV-1 strain KOS infected cell protein 0, residues A636-Q776) (herpes simplex virus 1 (HSV-1), strain KOS); remark: listed apart in the source
[3] = molecular target: proteolytic fragment of his-ICP0 391-776 (HSV-1 strain KOS) that crystallised (herpes simplex virus 1 (HSV-1), strain KOS)

Substance | stoichiometry N [1] | stoichiometry N [2] | stoichiometry N [3]
His-ICP0 (HSV-1 strain KOS infected cell protein 0, residues A636-Q776) (domain or fragment) | 4 | 2 | 
proteolytic fragment of his-ICP0 391-776 (HSV-1 strain KOS) that crystallised (domain or fragment) |  |  | 2
